Publication PMC12860359, “Selection and optimization strategy for Rap1-targeting single-domain antibodies as platelet activation markers” (Research and Practice in Thrombosis and Haemostasis, 2025)
Residue numbers refer to the chain shown, from its start.

Key:
LexA-Rap1B G12V = target: T1, LexA-Rap1B G12V (Homo sapiens, G12V)
T1 chain: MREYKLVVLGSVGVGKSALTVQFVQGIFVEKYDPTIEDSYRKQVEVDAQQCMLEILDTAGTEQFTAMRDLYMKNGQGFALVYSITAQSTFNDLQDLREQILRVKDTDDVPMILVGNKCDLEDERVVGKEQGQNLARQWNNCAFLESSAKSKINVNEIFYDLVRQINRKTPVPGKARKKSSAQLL

VHH-hFcS A47 [1] = target: T2, VHH-hFcS A47; assay: ELISA; VHH-FcS (1.25 μg/mL) captured on goat antihuman Fc (Fab')2-coated plates; human platelet lysates (6 × 10^6 platelets/well) loaded with GTPγS, or PRP before and after stimulation with TRAP or ADP; detection with anti-Rap1 monoclonal (Abcam) or polyclonal (Merck) antibody; details: one partner purified
T2 construct: VHH A47; Bivalent VHH-Fc; also called VHH-FcS A47; VHH-Fc silent A47; source: HEK293, transfected (pHLSec), serum-free medium, purified

VHH-hFcS B14 = target: T3, VHH-hFcS B14; assay: as above; details: one partner purified
T3 construct: as the VHH of m19 (A47); Bivalent VHH-Fc; also called VHH-Fc B14; source: HEK293, transfected (pHLSec), serum-free medium, purified

VHH-hFcS B89 [2] = target: T4, VHH-hFcS B89; assay: co-IP; immunoprecipitation: VHH-Fc (1-2 μg) on Protein A/G magnetic beads incubated overnight at 4 °C with human platelet lysates (~200 μg protein) loaded with GTPγS or from platelets stimulated with TRAP or ADP; Rap1 western blot; details: one partner purified
T4 construct: as the VHH of m19 (A47); Bivalent VHH-Fc; Some immunoprecipitations name only 'VHH-Fc B89' without the kind of Fc; also called VHH-Fc B89; source: HEK293, transfected (pHLSec), serum-free medium, purified

[3] = target: T5, VHH-Fc A64 (immunoprecipitation); assay: as above; details: one partner purified
T5 construct: VHH A64; source: HEK293, transfected; 2 μg used

VHH-hFcS B89 [4] = target: T4, VHH-hFcS B89; assay: BLI; OCTET R2; VHH-hFcS (2.5 μg/mL) on protein A biosensors; Rap1B loaded with GTPγS in solution at 0.04, 0.13, 0.4, 1.2 μM; 20 mM Tris-HCl pH 7.4, 0.1% BSA, 200 mM NaCl, 2 mM EDTA, 10 mM MgCl2; 25 °C; 1:1 fit; details: both partners purified
VHH-hFcS A47 [5] = target: T2, VHH-hFcS A47; assay: as above; details: both partners purified

B1: A141 (VHH)
VHH: EVQLQASGGGFVQPGGSLRLSCAASGATSKLSAMGWFRQAPGKEREFVSAISAQNDFWTYYADSVKGRFTISRDNSKNTVYLQMNSLRAEDTATYYCAHHFPSTAKSYWGQGTQVTVSS
binding result (LexA-Rap1B G12V): binds

B2: A145 (VHH)
VHH: EVQLQASGGGFVQPGGSLRLSCAASGATWKHEIMGWFRQAPGKEREFVSAISSQPGLWDYYADSVKGRFTISRDNSKNTVYLQMNSLRAEDTATYYCATPGQRMIEYWGQGTQVTVSS
binding result (LexA-Rap1B G12V): binds

B3: Rap1 of human platelets (natural protein, human (endogenous in platelets), UniProt P61224 1-184, looked up)
chain: MREYKLVVLGSGGVGKSALTVQFVQGIFVEKYDPTIEDSYRKQVEVDAQQCMLEILDTAGTEQFTAMRDLYMKNGQGFALVYSITAQSTFNDLQDLREQILRVKDTDDVPMILVGNKCDLEDERVVGKEQGQNLARQWNNCAFLESSAKSKINVNEIFYDLVRQINRKTPVPGKARKKSSC
notes: also called active Rap1; source: endogenous, human platelet lysate
binding result (VHH-hFcS A47 [1]): binds
binding result (VHH-hFcS B14): binds
binding result (VHH-hFcS B89 [2]): binds
binding result [3]: binds

B4: MBP-HA Rap1B WT (natural protein, human, UniProt P61224-1 1-184, looked up)
chain: T1 chain with V12G
notes: loaded with GTPγS or GDP before the assays; this is the only recombinant wild-type Rap1B it describes; also called human Rap1B; recombinant Rap1B; source: E. coli BL21DE3, purified (amylose resin); not shown: MBP, N-terminal, kept; HA, N-terminal, kept
Kd (VHH-hFcS B89 [4]): 4.4 nM
koff (VHH-hFcS B89 [4]): 0.000513 s⁻¹
kon (VHH-hFcS B89 [4]): 166000 M⁻¹ s⁻¹
Kd (VHH-hFcS A47 [5]): 17.2 nM
